For two molecules, EC50, IC50 and EC90 results are on record in patent US12534531 (MacroGenics, dated 2026).

As a reminder, the EC50 is the concentration that produces a half-maximal response. A word on the IC50: it is the midpoint of a concentration-inhibition curve. A higher IC50 goes with lower potency. Broadly, the EC90 is the concentration at which the effect reaches the 90% level.

For assay [1], the target named is T1, human LAG-3 expressed on NSO cells (human, UniProt P18627 29-525).
T1 sequence: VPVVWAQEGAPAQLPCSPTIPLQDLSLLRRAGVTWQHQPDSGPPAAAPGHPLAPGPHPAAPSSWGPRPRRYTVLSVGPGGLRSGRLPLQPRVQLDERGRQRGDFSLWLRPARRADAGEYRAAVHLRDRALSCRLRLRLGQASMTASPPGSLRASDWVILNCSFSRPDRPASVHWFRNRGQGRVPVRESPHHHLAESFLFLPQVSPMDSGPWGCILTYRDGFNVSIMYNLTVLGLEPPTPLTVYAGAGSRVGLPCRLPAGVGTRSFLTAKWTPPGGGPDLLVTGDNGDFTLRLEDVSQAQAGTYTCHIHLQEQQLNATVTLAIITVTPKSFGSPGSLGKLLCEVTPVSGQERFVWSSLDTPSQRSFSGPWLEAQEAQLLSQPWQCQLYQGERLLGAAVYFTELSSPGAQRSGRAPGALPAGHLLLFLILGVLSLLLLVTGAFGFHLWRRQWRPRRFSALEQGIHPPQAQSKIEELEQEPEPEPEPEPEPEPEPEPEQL
The experiment in a line: FACS saturation binding to NSO cells expressing LAG-3; SM; SD 0.3045.

The target of assay [2] is T2, biotinylated-soluble human LAG-3-Fc fusion protein (human, UniProt P18627 23-450, biotinylated (site not stated)).
T2 construct: whole entry named; also called shLAG-3; shLAG-3-Fc; not shown: Fc
T2 sequence: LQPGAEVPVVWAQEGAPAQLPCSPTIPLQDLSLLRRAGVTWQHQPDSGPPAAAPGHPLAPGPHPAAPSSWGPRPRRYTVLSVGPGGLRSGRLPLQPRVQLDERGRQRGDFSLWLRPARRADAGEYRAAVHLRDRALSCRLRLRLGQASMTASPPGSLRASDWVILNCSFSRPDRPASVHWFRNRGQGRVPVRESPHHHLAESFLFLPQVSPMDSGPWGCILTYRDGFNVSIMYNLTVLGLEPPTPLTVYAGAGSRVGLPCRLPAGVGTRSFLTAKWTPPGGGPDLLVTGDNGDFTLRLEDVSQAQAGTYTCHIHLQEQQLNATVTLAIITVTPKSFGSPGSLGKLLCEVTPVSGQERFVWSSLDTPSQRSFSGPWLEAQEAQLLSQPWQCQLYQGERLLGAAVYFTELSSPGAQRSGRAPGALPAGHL
The experiment in a line: FACS: inhibition of shLAG-3-Fc binding to MHC II on Daudi cells (column head prints EC50); SM; SD 3.3552. (A flow cytometer gives signals particle by particle.)

The target of assay [3] is T3, human PD-1 expressed on the surface of cells (NSO cells expressing human PD-1; MNFAT-luc2/PD-1 Jurkat cells) (human, UniProt Q15116 21-288).
T3 construct: also called cell surface PD-1; PDCD1 transfected NSO cells expressing PD-1
T3 sequence (Q15116 21-288): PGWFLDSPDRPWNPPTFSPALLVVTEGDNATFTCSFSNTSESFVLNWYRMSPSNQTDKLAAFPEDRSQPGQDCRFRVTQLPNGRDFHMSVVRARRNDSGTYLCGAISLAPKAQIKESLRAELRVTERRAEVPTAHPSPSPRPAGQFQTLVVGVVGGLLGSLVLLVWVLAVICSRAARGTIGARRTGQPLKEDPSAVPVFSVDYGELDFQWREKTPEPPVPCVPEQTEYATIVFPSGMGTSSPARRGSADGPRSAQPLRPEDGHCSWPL
The experiment in a line: FACS: inhibition of sPD-L2 binding to PD-1 on NSO cells; SM; SD 0.7891.

In assay [4] the target is T3, human PD-1 expressed on the surface of …. The experiment in a line: FACS: inhibition of sPD-L1 binding to PD-1 on NSO cells; SM; SD 0.3581.
The target is the same in assay [5]. Put plainly: FACS saturation binding to NSO cells expressing PD-1; SM; SD 0.6227.
The target is the same in assay [6]. The experiment in a line: FACS saturation binding to NSO cells expressing PD-1; single experiment.
Assay [7] has the same target. Put plainly: FACS: inhibition of sPD-L1 binding to PD-1 on NSO cells; SM; SD 0.1729.
Assay [8] concerns the target T1, human LAG-3 expressed on NSO cells. The experiment in a line: FACS saturation binding to NSO cells expressing LAG-3; SM; SD 0.5770.
In assay [9] the target is T2, biotinylated-soluble human LAG-3-Fc …. Put plainly: FACS: inhibition of shLAG-3-Fc binding to MHC II on Daudi cells (column head prints EC50); SM; SD 1.2674.
Assay [10] concerns the target T3, human PD-1 expressed on the surface of …. The experiment in a line: FACS: inhibition of sPD-L2 binding to PD-1 on NSO cells; SM; SD 0.0846.

B1: DART G (bispecific antibody, human IgG1, kappa, L234A L235A)
chain 1: QVQLVQSGAEVKKPGASVKVSCKASGYTFTNYGMNWVRQAPGQGLEWMGWINTYTGESTYADDFEGRFVFSMDTSASTAYLQISSLKAEDTAVYYCARESLYDYYSMDYWGQGTTVTVSSASTKGPSVFPLAPSSKSTSGGTAALGCLVKDYFPEPVTVSWNSGALTSGVHTFPAVLQSSGLYSLSSVVTVPSSSLGTQTYICNVNHKPSNTKVDKRVEPKSCDKTHTCPPCPAPEAAGGPSVFLFPPKPKDTLYITREPEVTCVVVDVSHEDPEVKFNWYVDGVEVHNAKTKPREEQYNSTYRVVSVLTVLHQDWLNGKEYKCKVSNKALPAPIEKTISKAKGQPREPQVYTLPPSREEMTKNQVSLSCAVKGFYPSDIAVEWESNGQPENNYKTTPPVLDSDGSFFLVSKLTVDKSRWQQGNVFSCSVMHEALHAKYTQKSLSLSPG
chain 2: DIVMTQTPLSLSVTPGQPASISCKSSQSLLHSDAKTYLNWLLQKPGQPPERLIYLVSELDSGVPDRFSGSGSGTDFTLKISRVEAEDVGVYYCWQGTHFPYTFGGGTKVEIKRTVAAPSVFIFPPSDEQLKSGTASVVCLLNNFYPREAKVQWKVDNALQSGNSQESVTEQDSKDSTYSLSSTLTLSKADYEKHKVYACEVTHQGLSSPVTKSFNRGEC
chain 3: QVQLVQSGAEVKKPGASVKVSCKASGYTFTNYGMNWVRQAPGQGLEWMGWINTYTGESTYADDFEGRFVFSMDTSASTAYLQISSLKAEDTAVYYCARESLYDYYSMDYWGQGTTVTVSSASTKGPSVFPLAPSSKSTSGGTAALGCLVKDYFPEPVTVSWNSGALTSGVHTFPAVLQSSGLYSLSSVVTVPSSSLGTQTYICNVNHKPSNTKVDKRVEPKSCDKTHTCPPCPAPEAAGGPSVFLFPPKPKDTLYITREPEVTCVVVDVSHEDPEVKFNWYVDGVEVHNAKTKPREEQYNSTYRVVSVLTVLHQDWLNGKEYKCKVSNKALPAPIEKTISKAKGQPREPQVYTLPPSREEMTKNQVSLWCLVKGFYPSDIAVEWESNGQPENNYKTTPPVLDSDGSFFLYSKLTVDKSRWQQGNVFSCSVMHEALHNHYTQKSLSLSPGGGGSGGGSGGGEIVLTQSPATLSLSPGERATLSCRASESVDNYGMSFMNWFQQKPGQPPKLLIHAASNQGSGVPSRFSGSGSGTDFTLTISSLEPEDFAVYFCQQSKEVPYTFGGGTKVEIKGGGSGGGGQVQLVQSGAEVKKPGASVKVSCKASGYSFTSYWMNWVRQAPGQGLEWIGVIHPSDSETWLDQKFKDRVTITVDKSTSTAYMELSSLRSEDTAVYYCAREHYGTSPFAYWGQGTLVTVSSGGCGGGEVAALEKEVAALEKEVAALEKEVAALEK
chain 4: EIVLTQSPATLSLSPGERATLSCRASESVDNYGMSFMNWFQQKPGQPPKLLIHAASNQGSGVPSRFSGSGSGTDFTLTISSLEPEDFAVYFCQQSKEVPYTFGGGTKVEIKGGGSGGGGQVQLVQSGAEVKKPGASVKVSCKASGYSFTSYWMNWVRQAPGQGLEWIGVIHPSDSETWLDQKFKDRVTITVDKSTSTAYMELSSLRSEDTAVYYCAREHYGTSPFAYWGQGTLVTVSSGGCGGGKVAALKEKVAALKEKVAALKEKVAALKE
Regarding B1, the EC50 in [1] is 940 nM; in [5] it was 1150 nM. The IC50 is 2060 nM in [2], 2550 nM in assay [3] and 1600 nM in assay [4].

B2: DART F (bispecific antibody, human IgG1, kappa, L234A L235A)
chain 1: QVQLVQSGAEVKKPGASVKVSCKASGYSFTSYWMNWVRQAPGQGLEWIGVIHPSDSETWLDQKFKDRVTITVDKSTSTAYMELSSLRSEDTAVYYCAREHYGTSPFAYWGQGTLVTVSSASTKGPSVFPLAPSSKSTSGGTAALGCLVKDYFPEPVTVSWNSGALTSGVHTFPAVLQSSGLYSLSSVVTVPSSSLGTQTYICNVNHKPSNTKVDKRVEPKSCDKTHTCPPCPAPEAAGGPSVFLFPPKPKDTLYITREPEVTCVVVDVSHEDPEVKFNWYVDGVEVHNAKTKPREEQYNSTYRVVSVLTVLHQDWLNGKEYKCKVSNKALPAPIEKTISKAKGQPREPQVYTLPPSREEMTKNQVSLSCAVKGFYPSDIAVEWESNGQPENNYKTTPPVLDSDGSFFLVSKLTVDKSRWQQGNVFSCSVMHEALHAKYTQKSLSLSPG
chain 2: EIVLTQSPATLSLSPGERATLSCRASESVDNYGMSFMNWFQQKPGQPPKLLIHAASNQGSGVPSRFSGSGSGTDFTLTISSLEPEDFAVYFCQQSKEVPYTFGGGTKVEIKRTVAAPSVFIFPPSDEQLKSGTASVVCLLNNFYPREAKVQWKVDNALQSGNSQESVTEQDSKDSTYSLSSTLTLSKADYEKHKVYACEVTHQGLSSPVTKSFNRGEC
chain 3: QVQLVQSGAEVKKPGASVKVSCKASGYSFTSYWMNWVRQAPGQGLEWIGVIHPSDSETWLDQKFKDRVTITVDKSTSTAYMELSSLRSEDTAVYYCAREHYGTSPFAYWGQGTLVTVSSASTKGPSVFPLAPSSKSTSGGTAALGCLVKDYFPEPVTVSWNSGALTSGVHTFPAVLQSSGLYSLSSVVTVPSSSLGTQTYICNVNHKPSNTKVDKRVEPKSCDKTHTCPPCPAPEAAGGPSVFLFPPKPKDTLYITREPEVTCVVVDVSHEDPEVKFNWYVDGVEVHNAKTKPREEQYNSTYRVVSVLTVLHQDWLNGKEYKCKVSNKALPAPIEKTISKAKGQPREPQVYTLPPSREEMTKNQVSLWCLVKGFYPSDIAVEWESNGQPENNYKTTPPVLDSDGSFFLYSKLTVDKSRWQQGNVFSCSVMHEALHNHYTQKSLSLSPGGGGSGGGSGGGDIVMTQTPLSLSVTPGQPASISCKSSQSLLHSDAKTYLNWLLQKPGQPPERLIYLVSELDSGVPDRFSGSGSGTDFTLKISRVEAEDVGVYYCWQGTHFPYTFGGGTKVEIKGGGSGGGGQVQLVQSGAEVKKPGASVKVSCKASGYSFTSYWMNWVRQAPGQGLEWIGVIHPSDSETWLDQKFKDRVTITVDKSTSTAYMELSSLRSEDTAVYYCAREHYGTSPFAYWGQGTLVTVSSGGCGGGEVAALEKEVAALEKEVAALEKEVAALEK
chain 4: EIVLTQSPATLSLSPGERATLSCRASESVDNYGMSFMNWFQQKPGQPPKLLIHAASNQGSGVPSRFSGSGSGTDFTLTISSLEPEDFAVYFCQQSKEVPYTFGGGTKVEIKGGGSGGGGQVQLVQSGAEVKKPGASVKVSCKASGYTFTNYGMNWVRQAPGQGLEWMGWINTYTGESTYADDFEGRFVFSMDTSASTAYLQISSLKAEDTAVYYCARESLYDYYSMDYWGQGTTVTVSSGGCGGGKVAALKEKVAALKEKVAALKEKVAALKE
Turning to B2, the EC50 was found to be 1430 nM in [6] and 5.01 µM in assay [8]. The molecule also came in with an EC90 in [6] of 14.6 µM. For the same molecule, the values for the IC50 in [7], in assay [9] and in assay [10] were 570 nM, 1530 nM and 839 nM, respectively.
